Data from patent US8795627B2, “Treatment of liver disorders by administration of RAP conjugates” (Raptor Pharmaceuticals Inc., priority 2007, dated 2014).

Tests used:
LRP1 CR3-5 = LRP1 CR3-5 (Homo sapiens, UniProt Q07954); assay: Binding of RAP d3 / MegaRAP1 d3 variants to LRP1 CR3-5; conditions: in words
From the text: FIG. 1A-B depict binding of RAP d3, MegaRAP1 d3 (RAPv2A d3) and intermediate sequence variants to LRP2 CR89 and LRP1 CR3-5. FIG. 1A illustrates binding of RAP d3 mutants and RAPv2A d3 revertants to LRP2 CR89. FIG. 1B illustrates binding of RAP d3 mutants and RAPv2A d3 revertants to LRP1 CR3-5. Data were plotted and fitted by non-linear regression with the assumption of a single binding site (GraphPad Prism). Kd values with standard deviations were derived from the regression analysis.
Percent of maximum binding is the ratio of the OD at the highest concentration tested for each ligand and the highest OD measured for all such ligands at that concentration.

[1] = target: CR pairs of the second ligand-binding domain of human LRP1; conditions: all pairs except CR9-CR10; read-out: affinity of adjacent CR pairs for RAP d3; cited from earlier work

Chain of LRP1 CR3-5 (Q07954 852-973 limits assumed): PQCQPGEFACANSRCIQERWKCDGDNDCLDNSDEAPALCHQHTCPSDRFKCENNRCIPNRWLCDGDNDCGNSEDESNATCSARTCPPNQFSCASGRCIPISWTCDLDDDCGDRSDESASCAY

Molecule | binding to LRP1 CR domains (LRP1 CR3-5) | Kd [1] [nM]
MegaRAP1: RAPd3 variant; Table 2 positions 213 T, 217 K, 249 Y, 251 K, 256 A, 270 E (protein) GLDRLRRVSHQGYTTEAKFEEPRVIDLWDLAQSANLTDKELEAFREELKYFKAKIEAHNHYQKQLEIAHEELRHAESVGDGERVSRSREKHALLEGRTKELGYTVKKHLQDLSGRISRARHNEL | fails to bind LRP1 CR domains | –
RAP d3: third domain (d3) of receptor-associated protein, amino acids 200-323 of mature RAP; row 'RAP' of Table 2 (protein, listed as Homo sapiens) LDRLRRVSHQGYSTEAEFEEPRVIDLWDLAQSANLTDKELEAFREELKHFEAKIEKHNHYQKQLEIAHEKLRHAESVGDGERVSRSREKHALLEGRTKELGYTVKKHLQDLSGRISRARHNEL | – | 1 to 5
